B1: TYE705-RPL2-3'UTR (structured_RNA)
RNA: UGCAGUGGAGUUGGAGUGGGGAUGGGAUGUUGGGCAGUGGGCCCGUGGAU
B2: mt competitor (cons mt) (ssRNA)
RNA: UGCAGUGGAGUUGGAGUGAAACCAAACCGUUGGGCAGUGGGCCCGUGGAU

Tests used:
rGis2 [1] = molecular target: T1, rGis2 (Cryptococcus neoformans (H99), UniProt J9VQ17 1-201); experiment: UV-cross-linked EMSA; 5 mM Mg2+; EMSA: 15 mM HEPES pH 7.4, 40 mM KCl, 5 mM MgCl2, 5% glycerol, 0.5 pmol probe in 20 µl, room temperature 20 min, then UV cross-link on ice 10 min; conditions: protein: recombinant; tags: His (pET14b, Ni-NTA); label: 5'-TYE705; putative intramolecular G4
T1 sequence: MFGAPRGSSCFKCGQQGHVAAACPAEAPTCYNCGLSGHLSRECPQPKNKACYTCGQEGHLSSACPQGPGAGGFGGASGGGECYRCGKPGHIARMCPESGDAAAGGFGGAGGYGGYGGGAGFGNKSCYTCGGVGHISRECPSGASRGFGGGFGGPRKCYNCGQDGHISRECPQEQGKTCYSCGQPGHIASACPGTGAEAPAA

rZnf9 [2] = molecular target: T2, rZnf9 (Cryptococcus neoformans (H99), UniProt J9VQH8 1-184); experiment: as above; conditions: protein: recombinant; tags: His (pET14b, Ni-NTA); label: 5'-TYE705; putative intramolecular G4
T2 sequence: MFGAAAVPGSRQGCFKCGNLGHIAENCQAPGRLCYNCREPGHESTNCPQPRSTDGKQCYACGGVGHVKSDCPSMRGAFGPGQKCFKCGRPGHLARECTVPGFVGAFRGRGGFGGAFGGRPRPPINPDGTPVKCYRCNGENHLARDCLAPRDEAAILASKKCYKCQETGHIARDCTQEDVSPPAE

rGis2 [3] = molecular target: T1, rGis2; experiment: competition; 25x and 50x competitor, UV-cross-linked EMSA; EMSA: 15 mM HEPES pH 7.4, 40 mM KCl, 5 mM MgCl2, 5% glycerol, 0.5 pmol probe in 20 µl, room temperature 20 min, then UV cross-link on ice 10 min; conditions: protein: recombinant; tags: His (pET14b, Ni-NTA); label: none; no G4
rZnf9 [4] = molecular target: T2, rZnf9; experiment: as above; conditions: protein: recombinant; tags: His (pET14b, Ni-NTA); label: none; no G4

| Binder | binding result (rGis2 [1]) | binding result (rZnf9 [2]) | binding result (rGis2 [3]) | binding result (rZnf9 [4]) |
| --- | --- | --- | --- | --- |
| B1 | binds | binds |  |  |
| B2 |  |  | no binding | no binding |
